Results published in patent publication US20200317768A1 (published 2020).

Biological target: T1, human FcγRIIIaV extracellular domain, His-tagged (human, UniProt P08637 17-208)
T1 construct: also called FcgRIIIaV; not shown: C-terminal His-tag
Experiment: SPR (BIACORE); KD of SG1 divided by KD of variant

T1 sequence (P08637 17-208 F176V): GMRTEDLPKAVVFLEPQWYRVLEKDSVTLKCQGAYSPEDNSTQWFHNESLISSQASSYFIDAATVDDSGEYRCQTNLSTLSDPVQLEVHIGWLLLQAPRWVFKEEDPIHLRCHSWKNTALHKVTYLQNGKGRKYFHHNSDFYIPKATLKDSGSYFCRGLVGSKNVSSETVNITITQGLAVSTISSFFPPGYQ

B1: MS_M103205H795-SG1/M103202L889-SK1 (antibody, human IgG1, kappa)
heavy: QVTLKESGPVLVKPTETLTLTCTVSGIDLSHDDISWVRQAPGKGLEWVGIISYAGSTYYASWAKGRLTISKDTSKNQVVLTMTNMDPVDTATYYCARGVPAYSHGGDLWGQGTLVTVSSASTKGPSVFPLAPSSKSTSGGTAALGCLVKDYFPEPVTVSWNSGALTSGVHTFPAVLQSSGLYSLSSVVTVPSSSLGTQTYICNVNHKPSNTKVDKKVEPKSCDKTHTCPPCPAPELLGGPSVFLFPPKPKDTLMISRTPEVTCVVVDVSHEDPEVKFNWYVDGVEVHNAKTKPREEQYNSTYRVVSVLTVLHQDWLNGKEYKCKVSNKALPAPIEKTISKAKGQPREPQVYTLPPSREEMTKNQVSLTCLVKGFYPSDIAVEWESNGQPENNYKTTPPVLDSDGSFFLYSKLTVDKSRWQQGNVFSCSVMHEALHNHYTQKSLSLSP
light: DIVMTQSPATLSLSPGERATLSCTSSQSVYHANWLSWFQQKPGQPPKLLIYWASTLAYGVPSRFSGSGSGTDFTLTISSLQPEDAATYYCAGGYGGGRYAFGQGTKVEIKRTVAAPSVFIFPPSDEQLKSGTASVVCLLNNFYPREAKVQWKVDNALQSGNSQESVTEQDSKDSTYSLSSTLTLSKADYEKHKVYACEVTHQGLSSPVTKSFNRGEC
notes: Parent antibody with heavy chain constant region SG1; also called MS1032LO06-SG1; copies: 2 + 2
Question: How did the “KD fold (SG1 = 1)” value turn out when B1 was run?
Answer: 1 fold

B2: M103205H795-MY265/M103202L889-SK1 (antibody, human IgG1, kappa)
heavy: QVTLKESGPVLVKPTETLTLTCTVSGIDLSHDDISWVRQAPGKGLEWVGIISYAGSTYYASWAKGRLTISKDTSKNQVVLTMTNMDPVDTATYYCARGVPAYSHGGDLWGQGTLVTVSSASTKGPSVFPLAPSSKSTSGGTAALGCLVKDYFPEPVTVSWNSGALTSGVHTFPAVLQSSGLYSLSSVVTVPSSSLGTQTYICNVNHKPSNTKVDKKVEPKSCDKTHTCPPCPAPELLTGPSVFLFPPKPKDTLMISRTPEVTCVVVDVSDEDPEVKFNWYVDGVEVHNAKTKPREEQYNSTYRVVSVLTVLHQDWLNGKEYKCKVSNKALPKPIEKTISKAKGQPREPQVYTLPPSREEMTKNQVSLTCLVKGFYPSDIAVEWESNGQPENNYKTTPPVLDSDGSFFLYSKLTVDKSRWQQGNVFSCSVMHEALHNHYTQKSLSLSP
light: DIVMTQSPATLSLSPGERATLSCTSSQSVYHANWLSWFQQKPGQPPKLLIYWASTLAYGVPSRFSGSGSGTDFTLTISSLQPEDAATYYCAGGYGGGRYAFGQGTKVEIKRTVAAPSVFIFPPSDEQLKSGTASVVCLLNNFYPREAKVQWKVDNALQSGNSQESVTEQDSKDSTYSLSSTLTLSKADYEKHKVYACEVTHQGLSSPVTKSFNRGEC
notes: also called MS103205H795-MY265; copies: 2 + 2
Question: How did the “KD fold (SG1 = 1)” value turn out when B2 was run?
Answer: 0.2 fold

B3: M103205H795-MY441/M103202L889-SK1 (antibody, human IgG1, kappa)
heavy: QVTLKESGPVLVKPTETLTLTCTVSGIDLSHDDISWVRQAPGKGLEWVGIISYAGSTYYASWAKGRLTISKDTSKNQVVLTMTNMDPVDTATYYCARGVPAYSHGGDLWGQGTLVTVSSASTKGPSVFPLAPSSKSTSGGTAALGCLVKDYFPEPVTVSWNSGALTSGVHTFPAVLQSSGLYSLSSVVTVPSSSLGTQTYICNVNHKPSNTKVDKKVEPKSCDKTHTCPPCPAAELLTGPSVFLFPPKPKDTLMISRTPEVTCVVVDVSDEDPEVKFNWYVDGVEVHNAKTKPREEQYNSTYRVVSVLTVLHQDWLNGKEYKCKVSNKALPKPIEKTISKAKGQPREPQVYTLPPSREEMTKNQVSLTCLVKGFYPSDIAVEWESNGQPENNYKTTPPVLDSDGSFFLYSKLTVDKSRWQQGNVFSCSVMHEALHNHYTQKSLSLSP
light: DIVMTQSPATLSLSPGERATLSCTSSQSVYHANWLSWFQQKPGQPPKLLIYWASTLAYGVPSRFSGSGSGTDFTLTISSLQPEDAATYYCAGGYGGGRYAFGQGTKVEIKRTVAAPSVFIFPPSDEQLKSGTASVVCLLNNFYPREAKVQWKVDNALQSGNSQESVTEQDSKDSTYSLSSTLTLSKADYEKHKVYACEVTHQGLSSPVTKSFNRGEC
notes: copies: 2 + 2
Question: Which “KD fold (SG1 = 1)” value does the source give for B3 here?
Answer: 0.1 fold

B4: M103205H795-MY442/M103202L889-SK1 (antibody, human IgG1, kappa)
heavy: QVTLKESGPVLVKPTETLTLTCTVSGIDLSHDDISWVRQAPGKGLEWVGIISYAGSTYYASWAKGRLTISKDTSKNQVVLTMTNMDPVDTATYYCARGVPAYSHGGDLWGQGTLVTVSSASTKGPSVFPLAPSSKSTSGGTAALGCLVKDYFPEPVTVSWNSGALTSGVHTFPAVLQSSGLYSLSSVVTVPSSSLGTQTYICNVNHKPSNTKVDKKVEPKSCDKTHTCPPCPADELLTGPSVFLFPPKPKDTLMISRTPEVTCVVVDVSDEDPEVKFNWYVDGVEVHNAKTKPREEQYNSTYRVVSVLTVLHQDWLNGKEYKCKVSNKALPKPIEKTISKAKGQPREPQVYTLPPSREEMTKNQVSLTCLVKGFYPSDIAVEWESNGQPENNYKTTPPVLDSDGSFFLYSKLTVDKSRWQQGNVFSCSVMHEALHNHYTQKSLSLSP
light: DIVMTQSPATLSLSPGERATLSCTSSQSVYHANWLSWFQQKPGQPPKLLIYWASTLAYGVPSRFSGSGSGTDFTLTISSLQPEDAATYYCAGGYGGGRYAFGQGTKVEIKRTVAAPSVFIFPPSDEQLKSGTASVVCLLNNFYPREAKVQWKVDNALQSGNSQESVTEQDSKDSTYSLSSTLTLSKADYEKHKVYACEVTHQGLSSPVTKSFNRGEC
notes: copies: 2 + 2
Question: How did the “KD fold (SG1 = 1)” value turn out when B4 was run?
Answer: 0.2 fold

B5: M103205H795-MY443/M103202L889-SK1 (antibody, human IgG1, kappa)
heavy: QVTLKESGPVLVKPTETLTLTCTVSGIDLSHDDISWVRQAPGKGLEWVGIISYAGSTYYASWAKGRLTISKDTSKNQVVLTMTNMDPVDTATYYCARGVPAYSHGGDLWGQGTLVTVSSASTKGPSVFPLAPSSKSTSGGTAALGCLVKDYFPEPVTVSWNSGALTSGVHTFPAVLQSSGLYSLSSVVTVPSSSLGTQTYICNVNHKPSNTKVDKKVEPKSCDKTHTCPPCPAEELLTGPSVFLFPPKPKDTLMISRTPEVTCVVVDVSDEDPEVKFNWYVDGVEVHNAKTKPREEQYNSTYRVVSVLTVLHQDWLNGKEYKCKVSNKALPKPIEKTISKAKGQPREPQVYTLPPSREEMTKNQVSLTCLVKGFYPSDIAVEWESNGQPENNYKTTPPVLDSDGSFFLYSKLTVDKSRWQQGNVFSCSVMHEALHNHYTQKSLSLSP
light: DIVMTQSPATLSLSPGERATLSCTSSQSVYHANWLSWFQQKPGQPPKLLIYWASTLAYGVPSRFSGSGSGTDFTLTISSLQPEDAATYYCAGGYGGGRYAFGQGTKVEIKRTVAAPSVFIFPPSDEQLKSGTASVVCLLNNFYPREAKVQWKVDNALQSGNSQESVTEQDSKDSTYSLSSTLTLSKADYEKHKVYACEVTHQGLSSPVTKSFNRGEC
notes: copies: 2 + 2
Question: Which “KD fold (SG1 = 1)” value does the source give for B5 here?
Answer: 0.1 fold

B6: M103205H795-MY444/M103202L889-SK1 (antibody, human IgG1, kappa)
heavy: QVTLKESGPVLVKPTETLTLTCTVSGIDLSHDDISWVRQAPGKGLEWVGIISYAGSTYYASWAKGRLTISKDTSKNQVVLTMTNMDPVDTATYYCARGVPAYSHGGDLWGQGTLVTVSSASTKGPSVFPLAPSSKSTSGGTAALGCLVKDYFPEPVTVSWNSGALTSGVHTFPAVLQSSGLYSLSSVVTVPSSSLGTQTYICNVNHKPSNTKVDKKVEPKSCDKTHTCPPCPAFELLTGPSVFLFPPKPKDTLMISRTPEVTCVVVDVSDEDPEVKFNWYVDGVEVHNAKTKPREEQYNSTYRVVSVLTVLHQDWLNGKEYKCKVSNKALPKPIEKTISKAKGQPREPQVYTLPPSREEMTKNQVSLTCLVKGFYPSDIAVEWESNGQPENNYKTTPPVLDSDGSFFLYSKLTVDKSRWQQGNVFSCSVMHEALHNHYTQKSLSLSP
light: DIVMTQSPATLSLSPGERATLSCTSSQSVYHANWLSWFQQKPGQPPKLLIYWASTLAYGVPSRFSGSGSGTDFTLTISSLQPEDAATYYCAGGYGGGRYAFGQGTKVEIKRTVAAPSVFIFPPSDEQLKSGTASVVCLLNNFYPREAKVQWKVDNALQSGNSQESVTEQDSKDSTYSLSSTLTLSKADYEKHKVYACEVTHQGLSSPVTKSFNRGEC
notes: copies: 2 + 2
Question: For B6, which “KD fold (SG1 = 1)” value is on record?
Answer: 0.3 fold

B7: M103205H795-MY445/M103202L889-SK1 (antibody, human IgG1, kappa)
heavy: QVTLKESGPVLVKPTETLTLTCTVSGIDLSHDDISWVRQAPGKGLEWVGIISYAGSTYYASWAKGRLTISKDTSKNQVVLTMTNMDPVDTATYYCARGVPAYSHGGDLWGQGTLVTVSSASTKGPSVFPLAPSSKSTSGGTAALGCLVKDYFPEPVTVSWNSGALTSGVHTFPAVLQSSGLYSLSSVVTVPSSSLGTQTYICNVNHKPSNTKVDKKVEPKSCDKTHTCPPCPAGELLTGPSVFLFPPKPKDTLMISRTPEVTCVVVDVSDEDPEVKFNWYVDGVEVHNAKTKPREEQYNSTYRVVSVLTVLHQDWLNGKEYKCKVSNKALPKPIEKTISKAKGQPREPQVYTLPPSREEMTKNQVSLTCLVKGFYPSDIAVEWESNGQPENNYKTTPPVLDSDGSFFLYSKLTVDKSRWQQGNVFSCSVMHEALHNHYTQKSLSLSP
light: DIVMTQSPATLSLSPGERATLSCTSSQSVYHANWLSWFQQKPGQPPKLLIYWASTLAYGVPSRFSGSGSGTDFTLTISSLQPEDAATYYCAGGYGGGRYAFGQGTKVEIKRTVAAPSVFIFPPSDEQLKSGTASVVCLLNNFYPREAKVQWKVDNALQSGNSQESVTEQDSKDSTYSLSSTLTLSKADYEKHKVYACEVTHQGLSSPVTKSFNRGEC
notes: copies: 2 + 2
Question: For B7, which “KD fold (SG1 = 1)” value is on record?
Answer: 0.1 fold
